Test results reported in patent publication US20220175873A1.
No end group written: not given here.

How the values were obtained:
[1] = target: FQSE (SEQ ID NO:10)-specific binding sites in rat cortex membranes (rat); experiment: radioligand analysis, rat cortex membranes, incubation 20 min at 37 °C
[2] = target: FQSE (SEQ ID NO:10)-specific binding sites in rat cortex membranes (rat); experiment: radioligand analysis, rat cortex membranes, incubation 30 min at 24 °C
[3] = target: FQSE (SEQ ID NO:10)-specific binding sites in rat cortex membranes (rat); experiment: radioligand analysis, rat cortex membranes, incubation 30 min at 37 °C
[4] = target: FQSE (SEQ ID NO:10)-specific binding sites in rat cortex membranes (rat); experiment: radioligand analysis, rat cortex membranes, incubation 10 min at 4 °C
[5] = target: FQSE (SEQ ID NO:10)-specific binding sites in rat cortex membranes (rat); experiment: radioligand analysis, rat cortex membranes, incubation 20 min at 24 °C
[6] = target: NMDA receptors of rat hippocampal plasma membranes (rat); experiment: radioligand analysis with [^3H]-FQSE and unlabeled FQSE on rat hippocampal membranes isolated for NMDA receptors (negative control)
[7] = target: FQSE (SEQ ID NO:10)-specific binding sites in rat cortex membranes (rat); experiment: radioligand analysis, rat cortex membranes, incubation 20 min at 4 °C
[8] = target: FQSE (SEQ ID NO:10)-specific binding sites in rat cortex membranes (rat); experiment: radioligand analysis, rat cortex membranes, incubation 25 min at 24 °C (selected condition)
[9] = target: FQSE (SEQ ID NO:10)-specific binding sites in rat cortex membranes (rat); experiment: radioligand analysis with [3H] FQSE and unlabeled FQSE on membranes isolated by various techniques
[10] = target: FQSE (SEQ ID NO:10)-specific binding sites in rat cortex membranes (rat); experiment: radioligand analysis, rat cortex membranes, incubation 10 min at 37 °C
[11] = target: FQSE (SEQ ID NO:10)-specific binding sites in rat cortex membranes (rat); experiment: radioligand analysis, rat cortex membranes, buffer with added salts (NaCl, KCl, KH2PO4, CaCl2, MgCl2)
[12] = target: GABAA receptor of rat cerebral cortex plasma membranes (rat); experiment: [^3H]-Flunitrazepam radioligand analysis (benzodiazepine site), 25 min pre-incubation + 30 min incubation, 24 °C; FQSE 10^-5 M
[13] = target: GABAA receptor of rat cerebral cortex plasma membranes (rat); experiment: [^3H]-Flunitrazepam radioligand analysis (benzodiazepine site), 25 min pre-incubation + 30 min incubation, 4 °C; FQSE 10^-5 M
[14] = target: GABAA receptor of rat cerebral cortex plasma membranes (rat); experiment: [^3H]-Flunitrazepam radioligand analysis (benzodiazepine site), 30 min incubation, 4 °C; FQSE 10^-5 M
[15] = target: GABAA receptor of rat cerebral cortex plasma membranes (rat); experiment: [^3H]-Flunitrazepam radioligand analysis (benzodiazepine site), 30 min incubation, 24 °C; FQSE 10^-4 M
[16] = target: GABAA receptor of rat cerebral cortex plasma membranes (rat); experiment: [^3H]-Flunitrazepam radioligand analysis (benzodiazepine site), 30 min incubation, 4 °C; FQSE 10^-4 M
[17] = target: GABAA receptor of rat cerebral cortex plasma membranes (rat); experiment: [^3H]-Flunitrazepam radioligand analysis (benzodiazepine site), 30 min incubation, 24 °C; FQSE 10^-5 M
[18] = target: GABAA receptor of rat cerebral cortex plasma membranes (rat); experiment: [^3H]-Flunitrazepam radioligand analysis (benzodiazepine site), 25 min pre-incubation + 30 min incubation, 24 °C; FQSE 10^-4 M
[19] = target: GABAA receptor of rat cerebral cortex plasma membranes (rat); experiment: [^3H]-Flunitrazepam radioligand analysis (benzodiazepine site), 25 min pre-incubation + 30 min incubation, 4 °C; FQSE 10^-4 M
[20] = target: FQSE (SEQ ID NO:10)-specific binding sites in rat cortex membranes (rat); experiment: displacement of [^3H]-FQSE by unlabeled FQSE, rat cortex membranes, 25 min at room temperature

| Binder | % percentage of specific binding of total binding [1] [%] | % percentage of specific binding of total binding [2] [%] | % percentage of specific binding of total binding [3] [%] | % percentage of specific binding of total binding [4] [%] | % percentage of specific binding of total binding [5] [%] | difference between total and non-specific binding [6] [%] | % percentage of specific binding of total binding [7] [%] | % percentage of specific binding of total binding [8] [%] | specific FQSE binding percentage of the total binding [9] [%] | % percentage of specific binding of total binding [10] [%] | percentage of specific binding [11] [%] | Specific binding of [^3H]-Flunitrazepam, relative to control levels, % [12] [%] | Specific binding of [^3H]-Flunitrazepam, relative to control levels, % [13] [%] | Specific binding of [^3H]-Flunitrazepam, relative to control levels, % [14] [%] | Specific binding of [^3H]-Flunitrazepam, relative to control levels, % [15] [%] | Specific binding of [^3H]-Flunitrazepam, relative to control levels, % [16] [%] | Specific binding of [^3H]-Flunitrazepam, relative to control levels, % [17] [%] | Specific binding of [^3H]-Flunitrazepam, relative to control levels, % [18] [%] | Specific binding of [^3H]-Flunitrazepam, relative to control levels, % [19] [%] | IC50 [20] [nM] |
| --- | --- | --- | --- | --- | --- | --- | --- | --- | --- | --- | --- | --- | --- | --- | --- | --- | --- | --- | --- | --- |
| FQSE (also: tritium label ([3H]), position not given here) [[^3H]-FQSE (SEQ ID NO:10), tritium radiolabeled peptide] | 79 | 78 | 77 | 47 | 75 | 11 | 48 | 86 | 0 to 47 | 72 | 63 |  |  |  |  |  |  |  |  |  |
| FQSE [FQSE (SEQ ID NO:10) peptide, unlabeled] |  |  |  |  |  |  |  |  |  |  |  | 99.8 | 101 | 100 | 101 | 100 | 101 | 101 | 101 | 2000 |
